Assay results taken from patent publication US20170121381A1 (RAMOT AT TEL AVIV UNIVERSITY, published 2017).

Target: T1, purified active human caspase-6 (human, UniProt P55212 24-179; P55212 194-293, limits assumed)
T1 sequence (looked up) 1: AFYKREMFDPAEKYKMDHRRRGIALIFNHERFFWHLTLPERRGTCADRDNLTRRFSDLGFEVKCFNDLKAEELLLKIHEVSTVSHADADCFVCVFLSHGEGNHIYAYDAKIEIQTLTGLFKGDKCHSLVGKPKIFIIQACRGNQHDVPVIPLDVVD
T1 sequence (looked up) 2: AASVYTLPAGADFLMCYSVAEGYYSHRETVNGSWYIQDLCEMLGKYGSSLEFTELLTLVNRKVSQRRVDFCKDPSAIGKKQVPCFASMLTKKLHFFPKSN
Test: cell-based or functional assay

## GRKKRRQRRRPPQSSEIVLDGTDN [ED11]
  Km of Michaelis-Menten curve, Caspase-Glo 6 assay with Z-VEID-aminoluciferin, 10 uM ED11: 3.3 fold
